Measured values as given in PMC11532494 (Nature Communications, 2024).
Several values for one entry are separate records, joined by “and”; a condition that tells them apart may be missing. Equal entries are not always repeated. Where two headings read alike, the source gives them in different places. No end group written: not given here. *: point of attachment. AMC = Cc1cc(=O)oc2cc(N*)ccc12

What was measured:
Controls [1] = assay type: biochemical
LpApaH (3) = LpApaH (3) (Legionella pneumophila, UniProt A0A2S6EWV0); assay type: biochemical
VcHdaH (5b) = assay type: biochemical, Vibrio cholerae
PsApaH (4) = PsApaH (4) (Pseudomonas sp. M30-35, UniProt A0A1Y0KY79); assay type: biochemical
Procedure: (§1) Experiments with SIRT2 and SIRT5 were supplemented with NAD^+ (500 µM). Thereafter, a solution of trypsin (25 µL, 5.0 mg/mL; final concentration of 2.5 mg/mL) was added, and the development of the assay was allowed to proceed for 90 min at room temperature before fluorescence analysis. […] To this end, a single category is given to all conversions >48% on the heatmap. […] For the H4-derived peptide LGKbio no positive control was available.

LcApaH (3) = LcApaH (3) (Legionella cherrii, UniProt A0A0W0SGS1); assay type: biochemical
RsPrpH (1b) = experiment: Substrate screening assay (acyl-peptide-AMC); assay type: biochemical, Rhizorhabdus sp.
VsHdaH (1b) = assay type: biochemical, Vibrio sp.
BsAcuC (2c) = biological target: T1, BsAcuC (2c) (Bacillus subtilis, UniProt P39067); experiment: Substrate screening assay (acyl-peptide-AMC); assay type: biochemical
T1 construct: made in house; host or cells: E. coli BL21 (DE3)
T1 sequence (P39067 1-387): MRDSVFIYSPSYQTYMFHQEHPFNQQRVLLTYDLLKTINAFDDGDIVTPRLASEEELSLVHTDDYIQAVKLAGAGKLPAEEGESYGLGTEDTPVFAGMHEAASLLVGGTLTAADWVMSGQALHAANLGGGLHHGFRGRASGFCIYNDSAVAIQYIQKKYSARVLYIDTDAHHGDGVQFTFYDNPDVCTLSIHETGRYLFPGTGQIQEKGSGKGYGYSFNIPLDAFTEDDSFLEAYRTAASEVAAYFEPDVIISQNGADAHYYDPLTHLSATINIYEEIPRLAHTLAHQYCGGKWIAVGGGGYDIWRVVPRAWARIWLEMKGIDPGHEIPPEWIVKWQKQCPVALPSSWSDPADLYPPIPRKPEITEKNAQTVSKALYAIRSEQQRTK
Procedure: as §1

KpHdaH (1b) = KpHdaH (1b) (Klebsiella pneumoniae, UniProt A0A377Z5F6); assay type: biochemical
Controls [2] = assay type: biochemical; remark: listed apart in the source
RwDmhA (1b) = RwDmhA (1b) (Rhizorhabdus wittichii, UniProt A0A067XIQ6); assay type: biochemical
[3] = substrate screening, mean of two measurements
[4] = substrate screening, measurement 1 of two
[5] = substrate screening, measurement 2 of two
[6] = two measurements, single values

QPKKmyr (QPKK-{AMC}; not fully specified (residue 4); printed as QPKKmyr; also: myristoyl-lysine (which Lys not given here); UniProt P04637 317-320, looked up, fragment)
[AMC] (nM), controls, means (Controls [1]): 6615.23 nM
RFU means, LpApaH (3) (LpApaH (3)): 459 RFU
RFU*2, LpApaH (3) (LpApaH (3)): 820 RFU*2 and 1016 RFU*2
RFU*2 means, LpApaH (3) (LpApaH (3)): 918 RFU*2
RFU, LpApaH (3) (LpApaH (3)): 410 RFU and 508 RFU
[AMC] (nM), LpApaH (3) (LpApaH (3)): 400.39 nM and 496.09 nM
[AMC] (nM), LpApaH (3), means (LpApaH (3)): 448.24 nM
RFU means, VcHdaH (5b) (VcHdaH (5b); means of two measurements): -187.5 RFU
RFU*2 means, VcHdaH (5b) (VcHdaH (5b); means of two measurements): -375 RFU*2
[AMC] (nM), VcHdaH (5b), means (VcHdaH (5b); [3]): -183.11 nM
RFU means, PsApaH (4) (PsApaH (4); means of two measurements): 76.5 RFU
RFU*2 means, PsApaH (4) (PsApaH (4); means of two measurements): 153 RFU*2
[AMC] (nM), PsApaH (4), means (PsApaH (4); [3]): 74.71 nM
[AMC] (nM), PsApaH (4) (PsApaH (4); [4]): 39.06 nM
[AMC] (nM), PsApaH (4) (PsApaH (4); [5]): 110.35 nM
RFU means, LcApaH (3) (LcApaH (3)): 256.5 RFU
RFU*2 means, LcApaH (3) (LcApaH (3)): 513 RFU*2
[AMC] (nM), LcApaH (3), means (LcApaH (3)): 250.49 nM
RFU means, RsPrpH (1b) (RsPrpH (1b); means of two measurements): -466 RFU
RFU*2 means, RsPrpH (1b) (RsPrpH (1b); means of two measurements): -932 RFU*2
[AMC] (nM), RsPrpH (1b), means (RsPrpH (1b); [3]): -455.08 nM
[AMC] (nM), RsPrpH (1b) (RsPrpH (1b); [4]): -105.47 nM
[AMC] (nM), RsPrpH (1b) (RsPrpH (1b); [5]): -804.69 nM
RFU means, VsHdaH (1b) (VsHdaH (1b); means of two measurements): -206 RFU
RFU*2 means, VsHdaH (1b) (VsHdaH (1b); means of two measurements): -412 RFU*2
[AMC] (nM), VsHdaH (1b), means (VsHdaH (1b); [3]): -201.17 nM
[AMC] (nM), VsHdaH (1b) (VsHdaH (1b); [4]): 172.85 nM
[AMC] (nM), VsHdaH (1b) (VsHdaH (1b); [5]): -575.20 nM
RFU means, BsAcuC (2c) (BsAcuC (2c); means of two measurements): 540 RFU
RFU*2 means, BsAcuC (2c) (BsAcuC (2c); means of two measurements): 1080 RFU*2
[AMC] (nM), BsAcuC (2c), means (BsAcuC (2c); [3]): 527.34 nM
RFU means, KpHdaH (1b) (KpHdaH (1b); means of two measurements): 147 RFU
RFU*2 means, KpHdaH (1b) (KpHdaH (1b); means of two measurements): 294 RFU*2
[AMC] (nM), KpHdaH (1b), means (KpHdaH (1b); [3]): 143.55 nM
[AMC] (nM), KpHdaH (1b) (KpHdaH (1b); [4]): 173.83 nM
[AMC] (nM), KpHdaH (1b) (KpHdaH (1b); [5]): 113.28 nM
RFU*2, KpHdaH (1b) (KpHdaH (1b); [6]): 356 RFU*2 and 232 RFU*2
RFU, KpHdaH (1b) (KpHdaH (1b); [6]): 178 RFU and 116 RFU
RFU means, controls (Controls [2]): 6774 RFU
RFU*2, controls (Controls [2]): 12310 RFU*2 and 14786 RFU*2
RFU*2 means, controls (Controls [2]): 13548 RFU*2
RFU, controls (Controls [2]): 6155 RFU and 7393 RFU
RFU means, RwDmhA (1b) (RwDmhA (1b); means of two measurements): -605.5 RFU
RFU*2 means, RwDmhA (1b) (RwDmhA (1b); means of two measurements): -1211 RFU*2
[AMC] (nM), RwDmhA (1b), means (RwDmhA (1b); [3]): -591.31 nM
[AMC] (nM), RwDmhA (1b) (RwDmhA (1b); [4]): -337.89 nM
[AMC] (nM), RwDmhA (1b) (RwDmhA (1b); [5]): -844.73 nM
